Assay results: patent publication US10293026B2, “Agent for preventing or treating demyelinating disease” (Osaka University, priority 2014, dated 2019)

Experiments:
[1] = system: human oligodendrocyte precursor cells; assay: BrdU uptake by human oligodendrocyte precursor cells (Example 8); type: cell-based; set-up: dose or concentration left out as unconfirmed; details: recombinant human FGF21, human cells, vs saline control; significant difference; FIG. 8
Procedure: Recombinant human FGF21 (R&D) was diluted in saline solution immediately before use to prepare an FGF21-containing solution. Human oligodendrocyte precursor cells (ScienCell) were also prepared.
Initially, the oligodendrocyte precursor cells were seeded in a poly-L-lysinde-coated plastic tissue culture dish (Greiner Bio-One), and cultured in the following medium for 1 day (37° C., 5% CO2). The medium used was DMEM containing 4 mM L-gludamine (Sigma), 1 mM sodium pyruvate (Sigma), 0.1% bovine serum albumin (Sigma), 50 μg/ml apo-Transferrin (Sigma), 5 μg/ml insulin (Sigma), 30 nM sodium selenite (Sigma), 10 nM biotin (Sigma), 10 nM hydrocortisone (Sigma), 10 ng/ml Platelet-Derived Growth Factor-AA (Peprotech), 10 ng/ml basic fibroblast growth factor (Peprotech) 1 (v/v) %, and penicillin/streptomycin (Life Technologies). […] BrdU was subsequently added and cultured at 37° C. for 24 hours, and then the cells were collected; the BrdU uptake was then detected using the cell proliferation ELISA, BrdU colorimetric kit (Roche). As a control, an equivalent amount of saline solution was used instead of the FGF21-containing solution, and the BrdU uptake was measured under the same conditions as those described above. […]

[2] = system: myelin sheath in demyelination model mice; assay: MBP positive regions in spinal cord of demyelination model mice (Example 6); type: in vivo, C57BL/6j mice; details: subcutaneous 500 ng/kg per day for 2 weeks from 7 days after lysophosphatidylcholine, one mouse per group, FIG. 6
Procedure: Demyelination model mice were created as in Example 5 above. An FGF21-containing solution prepared by diluting recombinant FGF21 (R&D) in saline solution was subcutaneously administered for 2 weeks at a dose of 500 ng/kg body weight of FGF21 per day, to the demyelination model mice after 7 days from the administration of lysophosphatidylcholine. After 2 weeks, the demyelination model mice were anesthetized and transcardially perfused with saline solution, and spinal cord tissue was harvested. Sections were prepared from the harvested spinal cord tissue as in Example 5 above and then immunostained using an anti-MBP antibody, and MBP positive regions in the sections were counted. As a control, a saline solution containing 0.5% BSA was used, and MBP positive regions were counted under the same conditions as those described above. This experiment conducted the study using one mouse for each group.

B1: FGF21: Recombinant fibroblast growth factor 21 (R&D); the claimed active ingredient promoting oligodendrocyte precursor cell proliferation (protein, listed as Homo sapiens)
chain: MDSDETGFEHSGLWVSVLAGLLLGACQAHPIPDSSPLLQFGGQVRQRYLYTDDAQQTEAHLEIREDGTVGGAADQSPESLLQLKALKPGVIQILGVKTSRFLCQRPDGALYGSLHFDPEACSFRELLLEDGYNVYQSEAHGLPLHLPGNKSPHRDPAPRGPARFLPLPGLPPALPEPPGILAPQPPDVGSSDPLSMVGPSQGRSPSYAS
- BrdU uptake by the oligodendrocyte precursor cells [1]: markedly increased
- MBP positive regions [2]: increased
